In patent US12091446 (NATIONAL TECHNOLOGY AND ENGINEERING SOLUTIONS OF SANDIA, dated 2024):
Like-named read-outs stand apart in the source and are kept apart here.

Columns and labels:
[1] = molecular target: T1, SARS-COV-2 Wuhan (WT) RBD (SARS-COV-2, UniProt P0DTC2 319-541)
[2] = molecular target: T2, SARS-COV-2 spike, Gamma variant (P.1) (SARS-COV-2, UniProt P0DTC2 14-1273); test: cell-based or functional assay
[3] = molecular target: T3, SARS-COV-2 spike, Beta variant (B.1.351) (SARS-COV-2, UniProt P0DTC2 14-1273); test: cell-based or functional assay
[4] = molecular target: T4, SARS-COV-2 spike, Lambda variant (C.37) (SARS-COV-2, UniProt P0DTC2 14-1273); test: cell-based or functional assay
[5] = molecular target: T5, SARS-COV-2 spike, Mu variant (B.1.621) (SARS-COV-2, UniProt P0DTC2 14-1273); test: cell-based or functional assay
[6] = molecular target: T6, SARS-COV-2 spike, Delta variant (B.1.617.2) (SARS-COV-2, UniProt P0DTC2 14-1273); test: cell-based or functional assay
[7] = molecular target: T1, SARS-COV-2 Wuhan (WT) RBD; remark: listed apart in the source
[8] = molecular target: T7, SARS-COV-2 spike, Omicron variant (BA.1) (SARS-COV-2, UniProt P0DTC2 14-1273); test: cell-based or functional assay
SARS-COV-2 Delta RBD [9] = molecular target: T8, SARS-COV-2 Delta RBD (SARS-COV-2, UniProt P0DTC2 319-541); test: ELISA titration (A450 against Nb-hFc ug/mL) on SARS-CoV-2 Delta RBD
T8 construct: domain: RBD; also called SARS-COV-2 Delta RBD variant

[10] = molecular target: T2, SARS-COV-2 spike, Gamma variant (P.1); test: cell-based or functional assay; remark: listed apart in the source
[11] = molecular target: T3, SARS-COV-2 spike, Beta variant (B.1.351); test: cell-based or functional assay; remark: listed apart in the source
[12] = molecular target: T4, SARS-COV-2 spike, Lambda variant (C.37); test: cell-based or functional assay; remark: listed apart in the source
[13] = molecular target: T5, SARS-COV-2 spike, Mu variant (B.1.621); test: cell-based or functional assay; remark: listed apart in the source
[14] = molecular target: T6, SARS-COV-2 spike, Delta variant …; test: cell-based or functional assay; remark: listed apart in the source
SARS-COV-2 Delta RBD [15] = molecular target: T8, SARS-COV-2 Delta RBD
[16] = molecular target: T1, SARS-COV-2 Wuhan (WT) RBD; remark: listed apart in the source
[17] = molecular target: T7, SARS-COV-2 spike, Omicron variant (BA.1); test: cell-based or functional assay; remark: listed apart in the source

Row | Binder | Kd [1] [nM] | EC50, neutralization of spike pseudotyped virus [2] [nM] | EC50, neutralization of spike pseudotyped virus [3] [nM] | EC50, neutralization of spike pseudotyped virus [4] [nM] | EC50, neutralization of spike pseudotyped virus [5] [nM] | EC50, neutralization of spike pseudotyped virus [6] [nM] | Kd [7] [nM] | EC50, neutralization of spike pseudotyped virus [8] [nM] | binding result (SARS-COV-2 Delta RBD [9]) | EC50, neutralization of spike pseudotyped virus [10] [nM] | EC50, neutralization of spike pseudotyped virus [11] [nM] | EC50, neutralization of spike pseudotyped virus [12] [nM] | EC50, neutralization of spike pseudotyped virus [13] [nM] | EC50, neutralization of spike pseudotyped virus [14] [nM] | Kd (SARS-COV-2 Delta RBD [15]) [nM] | Kd [16] [nM] | EC50, neutralization of spike pseudotyped virus [17] [nM]
1 | AP1D4 Nb-huFc (Fc fusion) EVQLQASGGGFVQPGGSLRLSCAASGHTFDAHRMGWFRQAPGKEREFVSAISSWGQSSTYYADSVKGRFTISRDNSKNTVYLQMNSLRAEDTATYYCAQTDEGNQYVYWGQGTQVTVSS | 1.09 | 13.5 | 627 | 490 | 1.92 | 758 |  |  |  |  |  |  |  |  |  |  | 
2 | BP2A6 Nb-huFc (Fc fusion) EVQLQASGGGFVQPGGSLRLSCAASGQTFSHYIMGWFRQAPGKEREFVSAISAGQGHATYYADSVKGRFTISRDNSKNTVYLQMNSLRAEDTATYYCAKYQDTIAPLYWGQGTQVTVSS | 0.0766 | 0.63 | 0.34 | 883 | 2.53 | 875 | 149 | 43.3 | no binding (tested: 10 ug/mL) |  |  |  |  |  |  |  | 
3 | BP1A10 Nb-huFc (Fc fusion) EVQLQASGGGFVQPGGSLRLSCAASGQPSDRYIMGWFRQAPGKEREFVSAISQGAANKTAYADSVKGRFTISRDNSKNTVYLQMNSLRAEDTATYYCATHFNWQNYSYWGQGTQVTVSS | 0.548 | 3.95 | 4.32 |  | 26.1 |  |  |  |  |  |  |  |  |  |  |  | 
4 | AP1A5 Nb-huFc (Fc fusion) EVQLQASGGGFVQPGGSLRLSCAASGSTASHYTMGWFRQAPGKEREFVSAISSGRDHAKQYADSVKGRFTISRDNSKNTVYLQMNSLRAEDTATYYCAYEEINATQKDTLYWGQGTQVTVSS | 1.28 | 533 | 198 | 79.1 | 7.18 | 73.3 |  |  | no binding (tested: 10 ug/mL) |  |  |  |  |  |  |  | 
5 | AP1B6 Nb-huFc (Fc fusion) EVQLQASGGGFVQPGGSLRLSCAASGSAFQIYAMGWFRQAPGKEREFVSAISSTDSETDHYADSVKGRFTISRDNSKNTVYLQMNSLRAEDTATYYCAVNGFDYAHSKAGPQVYWGQGTQVTVSS | 0.585 | 0.26 | 0.12 | 414 | 1.54 | 586 |  |  | no binding (tested: 10 ug/mL) |  |  |  |  |  |  |  | 
6 | KP1C9 Nb-huFc (Fc fusion) EVQLQASGGGFVQPGGSLRLSCAASGRTFDAYSMGWFRQAPGKEREFVSAISSWSDDWTAYADSVKGRFTISRDNSKNTVYLQMNSLRAEDTATYYCALQNTKEDRLYWGQGTQVTVSS | 0.119 |  |  |  |  |  |  |  |  | 80.2 | 203 | 0.13 | 2.02 | 1.22 | 25.5 |  | 
7 | AP1C3 Nb-huFc (Fc fusion) EVQLQASGGGFVQPGGSLRLSCAASGRTYRGYSMGWFRQAPGKEREFVSAISSWSDDWTAYADSVKGRFTISRDNSKNTVYLQMNSLRAEDTATYYCAWQYIDEIQYYWGQGTQVTVSS | 0.133 | 1.07 | 338 | 0.02 | 0.83 | 191 |  |  |  |  |  |  |  |  | 33.3 |  | 
8 | BP1B1 Nb-huFc (Fc fusion) EVQLQASGGGFVQPGGSLRLSCAASGRTFSGYIMGWFRQAPGKEREFVSAISQGDSYASYYADSVKGRFTISRDNSKNTVYLQMNSLRAEDTATYYCALYDINTVPYYWGQGTQVTVSS | 0.266 |  |  |  |  |  |  |  | no binding (tested: 10 ug/mL) | 3.68 | 3.5 |  | 6.97 |  |  | 371 | 403
9 | BP2A3 Nb-huFc (Fc fusion) EVQLQASGGGFVQPGGSLRLSCAASGRTFSAYSMGWFRQAPGKEREFVSAISAGDGAASYYADSVKGRFTISRDNSKNTVYLQMNSLRAEDTATYYCAHYYTTSATLDYAYWGQGTQVTVSS | 0.315 |  |  |  |  |  |  |  | no binding (tested: 10 ug/mL) | 3.73 | 4.44 |  | 466 |  |  |  | 
10 | BP2H9 Nb-huFc (Fc fusion) EVQLQASGGGFVQPGGSLRLSCAASGQTFTHVPMGWFRQAPGKEREFVSAISDTSGFETYYADSVKGRFTISRDNSKNTVYLQMNSLRAEDTATYYCAWAYDQFNWNYWGQGTQVTVSS |  |  |  |  |  |  |  |  |  | 0.26 | 0.21 |  | 922 |  |  |  | 
11 | KP2C6 Nb-huFc (Fc fusion) EVQLQASGGGFVQPGGSLRLSCAASGRTFTSFHMGWFRQAPGKEREFVSAISSGDDGTQYYADSVKGRFTISRDNSKNTVYLQMNSLRAEDTATYYCAAYTTTTVPQYWGQGTQVTVSS | 4.46 |  |  |  |  |  |  |  |  | 408 | 411 | 612 | 305 | 18.3 | 62.6 |  | 
12 | KP1B5 Nb-huFc (Fc fusion) EVQLQASGGGFVQPGGSLRLSCAASGFTFDWSAMGWFRQAPGKEREFVSAISSSTSESTTYADSVKGRFTISRDNSKNTVYLQMNSLRAEDTATYYCATYYGGKTVEQDFYWGQGTQVTVSS |  |  |  |  |  |  |  |  |  | 214 | 482 | 472 | 367 | 324 |  |  | 
13 | DP4F2 Nb-huFc (Fc fusion) EVQLQASGGGFVQPGGSLRLSCAASGTTYSERVMGWFRQAPGKEREFVSAISSGQSDQTYYYADSVKGRFTISRDNSKNTVYLQMNSLRAEDTATYYCAPFAGDANLPREWYWGQGTQVTVSSA | 9.51 |  |  |  |  |  |  |  |  |  |  |  | 25.1 | 26.8 | 1.91 |  | 
